Results taken from patent publication US20030104423.
Substitutions are numbered along the chain they refer to. Names and notes keep the numbering of the source.

B1: β′ mutant R297L (protein)
chain: MKDLLKFLKAQTKTEEFDAIKIALASPDMIRSWSFGEVKKPETINYRTFKPERDGLFCARIFGPVKDYECLCGKYKRLKHRGVICEKCGVEVTQTKVRRERMGHIELASPTAHIWFLKSLPSRIGLLLDMPLRDIERVLYFESYVVIEGGMTNLERQQILTEEQYLDALEEFGDEFDAKMGAEAIQALLKSMDLEQECEQLREELNETNSETKRKKLTKRIKLLEAFVQSGNKPEWMILTVLPVLPPDLRPLVPLDGGRFATSDLNDLYRRVINRNNRLKRLLDLAAPDIIVRNEKLMLQEAVDALLDNGRRGRAITGS
B2: β′ mutant L299D (protein)
chain: B1 chain with L297R, L299D
B3: β′ mutant E301K (protein)
chain: B1 chain with L297R, E301K
B4: β′ mutant V272D (protein)
chain: B1 chain with V272D, L297R
B5: β′ mutant N274D (protein)
chain: B1 chain with N274D, L297R
B6: β′ mutant E301P (protein)
chain: B1 chain with L297R, E301P
B7: β′ mutant N274P (protein)
chain: B1 chain with N274P, L297R
B8: β′ mutant R270L (protein)
chain: B1 chain with R270L, L297R

Each protein was assayed against σ70, native, untagged (pLN12), P00579.
Chain of σ70, native, untagged (pLN12), P00579 (P00579 whole entry): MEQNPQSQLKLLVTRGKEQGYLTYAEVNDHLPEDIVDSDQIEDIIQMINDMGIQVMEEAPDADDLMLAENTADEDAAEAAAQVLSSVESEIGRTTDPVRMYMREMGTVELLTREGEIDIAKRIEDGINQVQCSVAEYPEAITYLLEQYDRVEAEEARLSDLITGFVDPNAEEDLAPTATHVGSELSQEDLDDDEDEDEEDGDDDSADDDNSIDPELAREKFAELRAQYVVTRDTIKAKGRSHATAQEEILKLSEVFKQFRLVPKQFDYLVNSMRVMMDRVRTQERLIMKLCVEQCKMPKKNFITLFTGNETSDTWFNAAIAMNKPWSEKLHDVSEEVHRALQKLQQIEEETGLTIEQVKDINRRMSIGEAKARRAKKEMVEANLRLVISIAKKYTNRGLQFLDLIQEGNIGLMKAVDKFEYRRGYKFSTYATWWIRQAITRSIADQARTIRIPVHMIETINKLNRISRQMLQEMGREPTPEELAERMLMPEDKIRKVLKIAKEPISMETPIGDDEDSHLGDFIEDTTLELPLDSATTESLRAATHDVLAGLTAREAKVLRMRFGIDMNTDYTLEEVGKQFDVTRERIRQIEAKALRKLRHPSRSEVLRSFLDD
B1 was tested, and the “Growth at 42° C. with plasmid β′ as sole source of β′ (strain RL602)” value (“Growth at 42° C. with plasmid β′” for short) was “-”.
For B2, the “Growth at 42° C. with plasmid β′” value was “-”.
In the case of B3, the “Growth at 42° C. with plasmid β′” value is reported as “+”.
For B4, the “Growth at 42° C. with plasmid β′” value was “-”.
With B5 the “Growth at 42° C. with plasmid β′” value was “+”.
With B6 the “Growth at 42° C. with plasmid β′” value was “-”.
In the case of B7, the “Growth at 42° C. with plasmid β′” value is reported as “-”.
In the case of B8, the “Growth at 42° C. with plasmid β′” value is reported as “+”.
